Experimental data reported in paper PMC8125372, “Refining the Design of Diblock Elastin-Like Polypeptides for Self-Assembly into Nanoparticles” (Polymers, 2021).

Target: the molecule itself
Assay: dynamic light scattering; 10 µM ELP in PBS on a heating ramp (7-40 °C in the legend, 7-37 °C in the methods), scattering angle 90°; nanoparticles between the CMT and Tt,bulk (18.5 and 27 °C for ELP-[*M1V3-40]-[I-90]; 19 and 31 °C for ELP-[*M1V3-60]-[I-90])

B1: ELP-[*M1V3-40]-[I-90] (other)
chain: MWVPGVGVPGMGVPGVGVPGVGVPGVGVPGMGVPGVGVPGVGVPGVGVPGMGVPGVGVPGVGVPGVGVPGMGVPGVGVPGVGVPGVGVPGMGVPGVGVPGVGVPGVGVPGMGVPGVGVPGVGVPGVGVPGMGVPGVGVPGVGVPGVGVPGMGVPGVGVPGVGVPGVGVPGMGVPGVGVPGVGVPGVGVPGMGVPGVGVPGVGIGVPGIGVPGIGVPGIGVPGIGVPGIGVPGIGVPGIGVPGIGVPGIGVPGIGVPGIGVPGIGVPGIGVPGIGVPGIGVPGIGVPGIGVPGIGVPGIGVPGIGVPGIGVPGIGVPGIGVPGIGVPGIGVPGIGVPGIGVPGIGVPGIGVPGIGVPGIGVPGIGVPGIGVPGIGVPGIGVPGIGVPGIGVPGIGVPGIGVPGIGVPGIGVPGIGVPGIGVPGIGVPGIGVPGIGVPGIGVPGIGVPGIGVPGIGVPGIGVPGIGVPGIGVPGIGVPGIGVPGIGVPGIGVPGIGVPGIGVPGIGVPGIGVPGIGVPGIGVPGIGVPGIGVPGIGVPGIGVPGIGVPGIGVPGIGVPGIGVPGIGVPGIGVPGIGVPGIGVPGIGVPGIGVPGIGVPGIGVPGIGVPGIGVPGIGVPGIGVPGIGVPGIGVPGIGVPGIGVPGIGVPGIGVPGY
modifications: Thioether side chain of Met residues oxidized into sulfoxide M(O) with H2O2 (11 Met); two Met residues were found oxidized into sulfone M(O2)
notes: N-terminal leader of the elastin-like polypeptide; C-terminal residue; also called oxidized ELP-[M1V3-40]-[I-90]; source: E. coli BL21 Star (DE3), purified (inverse transition cycling with ammonium sulfate, desalting), then oxidised with H2O2
binding result: binds
